From US20200270335A1 (Biogen, published 2020)

Experiments:
[1] = biological target: LRP6 of Super TopFlash (STF, HEK293) cells (UniProt O75581 20-1613, limits assumed); assay: cell-based or functional assay
[2] = biological target: T1, human LRP6 on huLRP6-expressing BaF3 cells (human, UniProt O75581 20-1613); assay: FACS LRP6 binding assay, competition with anti-LRP6 antibody (FIG. 50)
T1 construct: whole, on cells; also called Lipoprotein receptor like protein 6
T1 sequence (O75581 20-1613): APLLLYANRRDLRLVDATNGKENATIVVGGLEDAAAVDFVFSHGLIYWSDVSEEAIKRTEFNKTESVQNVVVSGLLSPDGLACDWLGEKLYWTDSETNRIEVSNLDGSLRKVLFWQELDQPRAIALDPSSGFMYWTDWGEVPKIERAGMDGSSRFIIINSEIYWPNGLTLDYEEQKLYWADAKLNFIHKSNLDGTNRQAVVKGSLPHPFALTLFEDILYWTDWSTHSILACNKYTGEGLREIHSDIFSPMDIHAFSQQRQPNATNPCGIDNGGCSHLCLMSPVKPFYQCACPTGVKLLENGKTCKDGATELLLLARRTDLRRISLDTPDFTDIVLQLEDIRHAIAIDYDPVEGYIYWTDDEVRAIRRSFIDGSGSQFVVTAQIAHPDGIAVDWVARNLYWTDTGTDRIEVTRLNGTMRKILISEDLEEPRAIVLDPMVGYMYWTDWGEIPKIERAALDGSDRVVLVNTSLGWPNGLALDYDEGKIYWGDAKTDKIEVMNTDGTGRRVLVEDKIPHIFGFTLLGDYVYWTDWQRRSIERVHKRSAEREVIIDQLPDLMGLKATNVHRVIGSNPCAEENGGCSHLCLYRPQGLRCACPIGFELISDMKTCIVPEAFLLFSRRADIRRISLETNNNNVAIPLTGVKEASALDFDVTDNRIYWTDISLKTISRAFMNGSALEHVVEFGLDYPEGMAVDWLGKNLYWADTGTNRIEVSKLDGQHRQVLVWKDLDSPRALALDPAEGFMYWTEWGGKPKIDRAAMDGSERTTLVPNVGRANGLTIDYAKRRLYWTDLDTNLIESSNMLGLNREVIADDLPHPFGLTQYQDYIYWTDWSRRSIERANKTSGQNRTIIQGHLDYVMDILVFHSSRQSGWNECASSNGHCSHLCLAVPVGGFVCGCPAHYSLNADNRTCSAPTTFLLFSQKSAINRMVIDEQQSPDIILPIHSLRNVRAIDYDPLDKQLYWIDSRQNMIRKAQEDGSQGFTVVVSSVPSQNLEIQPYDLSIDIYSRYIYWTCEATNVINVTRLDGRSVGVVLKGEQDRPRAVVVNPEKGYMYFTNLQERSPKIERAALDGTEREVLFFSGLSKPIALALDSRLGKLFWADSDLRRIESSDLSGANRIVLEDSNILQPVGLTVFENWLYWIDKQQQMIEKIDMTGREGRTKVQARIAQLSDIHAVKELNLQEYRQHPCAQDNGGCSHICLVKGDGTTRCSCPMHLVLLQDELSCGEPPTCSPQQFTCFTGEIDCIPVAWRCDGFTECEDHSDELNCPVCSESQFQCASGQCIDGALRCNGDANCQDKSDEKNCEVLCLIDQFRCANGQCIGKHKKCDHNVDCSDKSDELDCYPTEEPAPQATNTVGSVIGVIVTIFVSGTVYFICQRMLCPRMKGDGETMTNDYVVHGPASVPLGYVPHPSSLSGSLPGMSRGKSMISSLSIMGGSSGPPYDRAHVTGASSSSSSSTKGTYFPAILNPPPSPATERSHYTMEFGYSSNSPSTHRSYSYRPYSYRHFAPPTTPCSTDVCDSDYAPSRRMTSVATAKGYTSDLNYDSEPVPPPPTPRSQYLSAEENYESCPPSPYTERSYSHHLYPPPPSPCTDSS

Chain of LRP6 of Super TopFlash (STF, HEK293) cells (O75581 20-1613 limits assumed): as the sequence (O75581 20-1613) above

IC50 in the Wnt signaling Super Top Flash (STF) activity assay [1]	IC50 [2]	Binder
~20 nM	20 nM	untagged murine DKK2-C2 from E. coli (ligand, also called E. coli DKK2 C2; non-PEGylated untagged DKK2-C2) GSMPHIKGHEGDPCLRSSDCIDGFCCARHFWTKICKPVLHQGEVCTKQRKKGSHGLEIFQRCDCAKGLSCKVWKDATYSSKARLHVCQKI
	326 nM	PEGylated untagged murine DKK2-C2 from E. coli (ligand, monoPEGylated with 20k-PEG-2-methyl proprionaldehyde and sodium cyanoborohydride; site not stated, also called monoPEGylated DKK2 C2; PEGylated version of DKK2 C2) GSMPHIKGHEGDPCLRSSDCIDGFCCARHFWTKICKPVLHQGEVCTKQRKKGSHGLEIFQRCDCAKGLSCKVWKDATYSSKARLHVCQKI
